Assay results reported in patent US20220177587A1, “METHODS AND USES OF VARIANT CD80 FUSION PROTEINS AND RELATED CONSTRUCTS” (Alpine Immune Sciences, Inc., priority 2018, published 2022).
Residue numbers refer to the chain shown, from its start. Names and notes keep the numbering of the source. One block for each molecule: values may come before it.

What was measured:
CD28 [1] = target: T1, CD28 (Homo sapiens, UniProt P10747); experiment: Flow binding to Jurkat/IL2 reporter cells (CD28); parameters: host or cells: Jurkat cells expressing an IL-2-luciferase reporter; details: for CD28 Fold change to WT CD80: MFI ratio to WT CD80 ECD-Fc (R&D) at 33.3 nM
How it was run: (§1)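 Cells were first blocked in PBS with 1% BSA and 0.1% sodium azide. Primary staining with fusion protein ran 45 min on ice, and secondary staining with PE anti-human Fc at 1:150 ran 30 min on ice.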

CD28 [2] = target: T1, CD28; experiment: Jurkat/IL2 + K562/OKT3/PD-L1 reporter assay; assay type: cell-based; parameters: host or cells: Jurkat cells expressing an IL-2-luciferase reporter; details: Table E8; K562/OKT3/PD-L1 aAPC; 50 nM
huCTLA4 = huCTLA4 (Homo sapiens, UniProt P16410); experiment: Flow binding to CHO cells stably expressing CTLA4; parameters: huCTLA4 and huPD-L1, full-length mammalian surface expression constructs were generated; expressed in transfected cells; host or cells: CHO cells, lentiviral transduction, sorted to >98% purity; details: for CTLA4 MFI at 33.3 nM: CHO cells stably expressing CTLA4; for CTLA4 Fold change to WT CD80: MFI ratio to WT CD80 ECD-Fc (R&D) at 33.3 nM
How it was run: as §1

huPD-L1 = huPD-L1 (Homo sapiens, UniProt Q9NZQ7); experiment: Flow binding to CHO cells stably expressing PD-L1; parameters: huCTLA4 and huPD-L1, full-length mammalian surface expression constructs were generated; expressed in transfected cells; host or cells: CHO cells, lentiviral transduction, sorted to >98% purity; details: for PD-L1 MFI at 33.3 nM: CHO cells stably expressing PD-L1; for PD-L1 Fold change to WT CD80: MFI ratio to WT CD80 ECD-Fc (R&D) at 33.3 nM; for Ratio of PDL1:CD28: binding to PD-L1 compared to binding to CD28
How it was run: as §1

CD28 [3] = target: T1, CD28; experiment: Jurkat/IL2 reporter assay: blockade of CD28 costimulation (plate-bound anti-CD3/CD86-Fc); assay type: cell-based; parameters: host or cells: Jurkat cells expressing an IL-2-luciferase reporter; details: Table E5; protein diluted to 40 nM before mixing with cells; 5 hours
Description: The day before the assay, the assay plate was prepared. […] The plate was incubated overnight at 4° C. to allow the antibody and CD86-Fc protein to adhere to the surface of the plate. The next day, the wells of the assay plate were washed twice with 150 μL PBS prior to the assay.
Jurkat effector cells expressing IL-2-luciferase reporter were counted and resuspended in assay buffer to a concentration of 2×10^6 cells/mL. 60 μL of the Jurkat cell suspension were then added to the wells containing the CD80-Fc fusion molecules or controls. The cells and CD80 proteins were incubated at room temperature for 15 minutes and then 100 μL of the cell/CD80 protein mixture were transferred/well of the prepared anti-CD3/CD86-Fc assay plate.
The assay plate was briefly spun down (10 seconds at 1200 RPM) and incubated at 37° C. for 5 hours. After the 5 hour incubation, the plate was removed and equilibrated to room temperature for 15 minutes. 100 μL of Bio-Glo (Promega) were added/well of the assay plate, which was then placed on an orbital shaker for 10 minutes. Luminescence was measured with a 1 second per well integration time using a BioTek Cytation 3 luminometer.

CD28 [4] = target: T1, CD28; experiment: Jurkat/IL2 + CHO/OKT3 +/- PD-L1 reporter assay: PD-L1-dependent CD28 costimulation; assay type: cell-based; parameters: host or cells: Jurkat cells expressing an IL-2-luciferase reporter; details: for PD-L1-Dependent CD28 Costimulation, +PD-L1, 0.6 nM / PD-L1-Dependent CD28 Costimulation, +PD-L1, 50 nM: CHO/OKT3/PD-L1 aAPC; for PD-L1-Dependent CD28 Costimulation, +PD-L1, 0.6 nM / PD-L1-Dependent CD28 Costimulation, +PD-L1, 50 nM / PD-L1-Dependent CD28 Costimulation, No PD-L1, 50 nM / PD-L1-Dependent CD28 Costimulation, No PD-L1, […]: luciferase signal; for PD-L1-Dependent CD28 Costimulation, No PD-L1, 50 nM / PD-L1-Dependent CD28 Costimulation, No PD-L1, […]: CHO/OKT3 aAPC
How it was run: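 Readout is relative luminescence from lysed cocultures: test protein given 15 min at room temperature to Jurkat cells before adding CHO artificial APCs displaying OKT3 alone or OKT3 plus PD-L1, then 5 h at 37 °C, 5% CO2.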

CD28 [5] = target: T1, CD28; experiment: CD28 costimulation via Fc receptor or PD-L1 dependent cross-linking (Jurkat/IL2 + K562/OKT3 +/- PD-L1); assay type: cell-based; parameters: host or cells: Jurkat cells expressing an IL-2-luciferase reporter; details: K562/0KT3 aAPC, luciferase signal
Description: In a further experiment, CD28 costimulation was assessed for variant CD80-IgV-Fc fusion proteins, where the Fc was an IgG1 Fc (e.g. SEQ ID NO:1517) capable of mediating effector activity via binding to Fc receptors (FcR). The experiment was carried out as described in part A above, except CD32-expressing K562 cells stably transduced with OKT3 (K562/OKT3) or OKT3 and PD-L1 (K562/OKT3/PD-L1) were used instead of the CHO/OKT3 and CHO/OKT3/PD-L1 cells, and the results are depicted in Table E9.

CD28 [6] = target: T1, CD28; experiment: Jurkat/IL2 + K562/OKT3 (no PD-L1) reporter assay of CD80 ECD-Fc (effector); assay type: cell-based; parameters: host or cells: Jurkat cells expressing an IL-2-luciferase reporter; details: aAPC without PD-L1
Description: The bioactivity of the generated molecules also was assessed using a Jurkat report assay as described in Examples 9 to assess CD28 costimulation of the molecules.

[7] = Table E4, 33.3 nM variant CD80 IgV-Fc

Sequence of huPD-L1 (Q9NZQ7 19-290): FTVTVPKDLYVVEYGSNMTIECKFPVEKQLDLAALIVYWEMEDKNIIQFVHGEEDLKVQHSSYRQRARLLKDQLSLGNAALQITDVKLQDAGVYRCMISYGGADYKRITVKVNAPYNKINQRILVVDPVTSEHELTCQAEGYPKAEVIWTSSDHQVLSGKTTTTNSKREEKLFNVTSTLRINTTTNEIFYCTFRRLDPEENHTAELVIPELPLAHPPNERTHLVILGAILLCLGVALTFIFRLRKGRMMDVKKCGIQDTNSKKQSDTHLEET
Sequence of huCTLA4 (P16410 36-223): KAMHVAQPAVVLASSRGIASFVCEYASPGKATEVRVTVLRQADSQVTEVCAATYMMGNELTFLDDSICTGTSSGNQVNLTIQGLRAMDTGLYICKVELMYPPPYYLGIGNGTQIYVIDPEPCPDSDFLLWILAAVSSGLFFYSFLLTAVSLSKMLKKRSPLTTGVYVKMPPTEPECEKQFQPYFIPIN

CD28 MFI at 33.3 nM (CD28 [1]; Table E4, Jurkat cells (CD28)): 2698 | CD28 Fold change to WT CD80 (CD28 [1]; Table E4): 0.15 | Fold Increase over WT CD80-IgV-Fe (CD28 [2]): 8.1 | Relative Luciferase Units (RLU), CD80-Fe Cone 50 nM (CD28 [2]): 1672 RLU | CTLA4 MFI at 33.3 nM (huCTLA4; [7]): 249456 | CTLA4 Fold change to WT CD80 (huCTLA4; Table E4): 1.59 | PD-L1 MFI at 33.3 nM (huPD-L1; Table E4): 12978 | PD-L1 Fold change to WT CD80 (huPD-L1; Table E4): 1.09 | Ratio of PDL1:CD28 (huPD-L1; Table E4): 5
B1: E35D/T41S/M43V/M47I/L70M/A71G (protein, UniProt P33681 35-288, looked up, variant E35D T41S M43V M47I L70M A71G)
T-lymphocyte activation …: VIHVTKEVKEVATLSCGHNVSVEELAQTRIYWQKDKKMVLSMVSGDINIWPEYKNRTIFDITNNLSIVIMGLRPSDEGTYECVVLKYEKDAFKREHLAEVTLSVKADFPTPSISDFEIPTSNIRRIICSTSGGFPEPHLSWLENGEELNAINTTVSQDPETELYAVSSKLDFNMTTNHSFMCLIKYGHLRVNQTFNWNTTKQEHFPDNLLPSWAITLISVNGIFVICCLTYCFAPRCRERRRNERLRRESVRPV
modifications: Fc fusion

CD28 MFI at 33.3 nM (CD28 [1]; Table E4, Jurkat cells (CD28)): 1331 | CD28 Fold change to WT CD80 (CD28 [1]; Table E4): 0.07 | Fold Increase over WT CD80-IgV-Fe (CD28 [2]): 6.7 | Relative Luciferase Units (RLU), CD80-Fe Cone 50 nM (CD28 [2]): 1381 RLU | CTLA4 MFI at 33.3 nM (huCTLA4; [7]): 274320 | CTLA4 Fold change to WT CD80 (huCTLA4; Table E4): 1.74 | PD-L1 MFI at 33.3 nM (huPD-L1; Table E4): 69780 | PD-L1 Fold change to WT CD80 (huPD-L1; Table E4): 5.88 | Ratio of PDL1:CD28 (huPD-L1; Table E4): 52
B2: E35D/D46E/M47V/N63D/L85Q (protein, UniProt P33681 35-288, looked up, variant E35D D46E M47V N63D L85Q)
T-lymphocyte activation …: B1 T-lymphocyte activation … with S41T, V43M, D46E, I47V, N63D, M70L, G71A, L85Q

Average Relative Luminescence Units (CD28 [3]): 2939 Relative Luminescence Units | PD-L1-Dependent CD28 Costimulation, +PD-L1, 0.6 nM (CD28 [4]): 524 | PD-L1-Dependent CD28 Costimulation, +PD-L1, 50 nM (CD28 [4]): 755 | PD-L1-Dependent CD28 Costimulation, No PD-L1, 50 nM (CD28 [4]): 644 | PD-L1-Dependent CD28 Costimulation, No PD-L1, […] (CD28 [4]): 466 | CD28 costimulation, FcR Dependent Cross-Linking (No PD-L1), 0.6 nM (CD28 [5]): 1821 | CD28 costimulation, FcR Dependent Cross-Linking (No PD-L1), 50 nM (CD28 [5]): 7109
B3: A71D/L72V/E95K: variant CD80 IgV-Fc, IgV SEQ ID NO:192 (protein)
chain: VIHVTKEVKEVATLSCGHNVSVEELAQTRIYWQKEKKMVLTMMSGDMNIWPEYKNRTIFDITNNLSIVILDVRPSDEGTYECVVLKYEKDAFKRKHLAEVTLSVKAD

CD28 MFI at 33.3 nM (CD28 [1]; Table E19, Jurkats (CD28)): 196 | Average Relative Luminescence Units (CD28 [3]): 3230 Relative Luminescence Units | PD-L1-Dependent CD28 Costimulation, +PD-L1, 0.6 nM (CD28 [4]): 611 | PD-L1-Dependent CD28 Costimulation, +PD-L1, 50 nM (CD28 [4]): 2224 | PD-L1-Dependent CD28 Costimulation, No PD-L1, 50 nM (CD28 [4]): 720 | PD-L1-Dependent CD28 Costimulation, No PD-L1, […] (CD28 [4]): 511 | Relative Luciferase Units (RLU), CD80 Conc 5.0 nM (CD28 [4]; Table E21, Jurkat/IL2 + CHO/OKT3/PD-L1, CD80 Conc 5.0 nM): 410 RLU | CD28 costimulation, FcR Dependent Cross-Linking (No PD-L1), 0.6 nM (CD28 [5]): 1880 | CD28 costimulation, FcR Dependent Cross-Linking (No PD-L1), 50 nM (CD28 [5]): 7015 | CTLA4 MFI at 33.3 nM (huCTLA4; Table E19, 33.3 nM): 48005 | PD-L1 MFI at 33.3 nM (huPD-L1; Table E19): 4039
B4: E35D/D46V/L85Q: variant CD80 IgV-Fc, IgV SEQ ID NO:203 (protein)
chain: B3 chain with E35D, D46V, D71A, V72L, L85Q, K95E

Average Relative Luminescence Units (CD28 [3]): 2067 Relative Luminescence Units | PD-L1-Dependent CD28 Costimulation, +PD-L1, 0.6 nM (CD28 [4]): 524 | PD-L1-Dependent CD28 Costimulation, +PD-L1, 50 nM (CD28 [4]): 695 | PD-L1-Dependent CD28 Costimulation, No PD-L1, 50 nM (CD28 [4]): 606 | PD-L1-Dependent CD28 Costimulation, No PD-L1, […] (CD28 [4]): 566 | CD28 costimulation, FcR Dependent Cross-Linking (No PD-L1), 0.6 nM (CD28 [5]): 2022 | CD28 costimulation, FcR Dependent Cross-Linking (No PD-L1), 50 nM (CD28 [5]): 7855
B5: E23G/A26S/E35D/T62N/A71D/L72V/L85M: variant CD80 IgV-Fc, IgV SEQ ID NO:216 (protein)
chain: B3 chain with E23G, A26S, E35D, T62N, L85M, K95E

Jurkat/CD28 MFI at 66.7 nM (CD28 [1]; 66.7 nM): 720 | EC50 (CD28 [1]; flow binding, read-out: Jurkat/CD28 EC50): > 200 nM | Relative Luminescence at 98 pM (CD28 [6]; 98 pM): 1098 RLU | Relative Luminescence at 391 pM (CD28 [6]; 391 pM): 1119 RLU | Relative Luminescence at 1563 pM (CD28 [6]; 1563 pM): 1288 RLU | Relative Luminescence at 6250 pM (CD28 [6]; 6250 pM): 1761 RLU | Relative Luminescence at 25000 pM (CD28 [6]; 25000 pM): 2209 RLU | Relative Luminescence at 100000 pM (CD28 [6]; 100000 pM): 2750 RLU | CHO/CTLA4 MFI at 66.7 nM (huCTLA4; 66.7 nM): 24801 | EC50 (huCTLA4; flow binding): 4.3 nM | CHO/PD-L1 MFI at 66.7 nM (huPD-L1; 66.7 nM): 107
B6: CD80 (A91G/I118V/T120S/T130A) ECD-Fc: variant full CD80 ECD fused to effector human IgG1 Fc (SEQ ID NO:1527) (protein)
chain: VIHVTKEVKEVATLSCGHNVSVEELAQTRIYWQKEKKMVLTMMSGDMNIWPEYKNRTIFDITNNLSIVILALRPSDEGTYECVVLKYEKDGFKREHLAEVTLSVKADFPTPSISDFEVPSSNIRRIICSASGGFPEPHLSWLENGEELNAINTTVSQDPETELYAVSSKLDFNMTTNHSFMCLIKYGHLRVNQTFNWNTTKQEHFPDN
